Laboratory results published in article PMC3741289.

What was measured:
[1] = biological target: wild type HspB5 (αB-crystallin) (human) (UniProt P02511); assay: SEC; cells treated for 2 h with 60 µM menadione before lysis; 10,000×g supernatant on Sepharose 6B in TEM buffer; fractions immunoblotted
[2] = biological target: wild type HspB5 (αB-crystallin) (human) (UniProt P02511); assay: co-IP; as the 150 mM experiment, but washes of the immunoprecipitated proteins in IPP300 buffer (0.3 M NaCl)
[3] = biological target: wild type HspB5 (αB-crystallin) (human) (UniProt P02511); assay: SEC; untreated Neo, WT or R120G HeLa cells lysed in TEM buffer with 0.1% Triton X-100; 10,000×g supernatant on a Sepharose 6B column (1×100 cm) in TEM buffer (20 mM Tris-HCl pH 7.4, 20 mM NaCl, 5 mM MgCl2, 0.1 mM EDTA); pooled fractions immunoblotted
[4] = biological target: HspB1 (Hsp27) (human (endogenous in HeLa)) (UniProt P04792); assay: co-IP; pooled gel filtration fractions (pool I of WT cells, pool II of R120G cells) with anti-HspB1 or anti-HspB5 antibody, 4 h at 4°C, protein G sepharose; washes in IPP150 (20 mM Tris-HCl pH 8, 150 mM NaCl, 0.05% NP-40); immunoblot of total, precipitate and depleted supernatant
Sequence of HspB1 (Hsp27) (human (endogenous in HeLa)) (P04792 whole entry): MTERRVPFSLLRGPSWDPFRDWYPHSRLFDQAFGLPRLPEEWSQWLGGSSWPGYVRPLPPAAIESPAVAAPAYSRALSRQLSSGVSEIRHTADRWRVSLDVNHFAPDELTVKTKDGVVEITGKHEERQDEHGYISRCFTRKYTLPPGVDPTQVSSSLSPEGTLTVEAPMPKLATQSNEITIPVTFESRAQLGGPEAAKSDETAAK

[5] = biological target: HspB1 (Hsp27) (human (endogenous in HeLa)) (UniProt P04792); assay: co-IP; as the 150 mM experiment, but washes of the immunoprecipitated proteins in IPP300 buffer (0.3 M NaCl)

Sequence of wild type HspB5 (αB-crystallin) (human) (P02511 whole entry): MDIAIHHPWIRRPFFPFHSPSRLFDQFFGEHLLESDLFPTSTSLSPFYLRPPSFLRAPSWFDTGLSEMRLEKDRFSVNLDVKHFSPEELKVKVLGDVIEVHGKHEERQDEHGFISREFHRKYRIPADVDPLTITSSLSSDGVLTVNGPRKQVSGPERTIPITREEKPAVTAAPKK

Substance: HspB1 phosphorylated at serine 78 (from UniProt P04792 1-205) (natural protein)
- percent of the soluble phosphorylated form in the complex [1]: 65%
- percent of the total cellular content of the phosphorylated form in the complex [1]: 31%

Substance: HspB1 phosphorylated at serine 15 (from UniProt P04792 1-205) (natural protein)
- percent of the soluble phosphorylated form in the complex [1]: 56%
- percent of the total cellular content of the phosphorylated form in the complex [1]: 28%

Substance: HspB1 (Hsp27) (from UniProt P04792 1-205) (natural protein)
- percent of the partner removed from the complex by the 300 mM NaCl wash [2]: 40%
- percent of HspB1 sharing the native size of HspB5 [3]: 90%
- percent of soluble HspB1 back in the small oligomers (out of the complex) [1]: 38%

Substance: wild type HspB5 (αB-crystallin) (from UniProt P02511 1-175) (natural protein)
- percent of the proteins in the pooled fractions that were in the complex [4]: 100%
- percent of the partner removed from the complex by the 300 mM NaCl wash [5]: 40%

Substance: HspB1 phosphorylated at serine 82 (from UniProt P04792 1-205) (natural protein)
- percent of the total cellular content of the phosphorylated form in the complex [3]: 56%
- percent of the soluble phosphorylated form in the complex [1]: 51%
- percent of the total cellular content of the phosphorylated form in the complex [1]: 27%
